From a protein production outcome set (Wang et al. 2014)

Test: label from the status in PepcDB records

## MKKINSAVLSIASNSMLIIFKLTAGITMNSISVLSEGVHSSIDLIASLIAFFSIKKSSLKEDDDHPFGHGKYENVSGFVEAILIMFAAIMIIYEAFNKLVSNSHVKNIDSGIYIMLISSAVNLFISIILLKSSKDTNSIALEADGMHLFTDFFTSLGVFLGLVLLKLTNIKIIDSITAFLVAILIIKTAVDLIKKSLRDLVDSSLDKDDINKIVKIVKKYPNIKEYHKLRTRRCGNTREIDIHIQIVGTDSLKETHDICSSIEDEIRRVFPDSCTVIHAEPYIEKFHKKSLT
  protein production: failed

## MNRAREINYLNSIALHQPFGIVGVSGETGIGKTTVLNFVNPEGVFTVRVNISLRDSMESILYDLLHSLALSLEKVEEVSDLAKEVRKWITDEVSTIKGFSLGVSFGVNASLTHEKSIRPRFNFFKAREKLGELIKQTVQRKGKFLLIIDELDKEKKEDVLRVIDSIKNFIIMEDFVVILSLPFSIYREYAADRLRWNEAGNLENIFTDIVFVEPLKKLEIKELIIKRLGSYIELIEDGVLDIVADFSDGNPRDGLWILTKAIYDNIHKELLSKEDLINTINRTISEYTGLTLNLTENQKKAIRVLRGSVYSREKIIETLQKEGFKRTTAYSVMDQLLQKRILLVEKEGYRISGKFSYMEI
  protein production: failed

## MTLDNRAFLKQSSKKLLFRFAVPAIFSLLVNELYNMVDTVFAGRYIGENAIGAMTIAFPIQKILIAMGLLIATGASTYAARVIGEKNYKELKKIVINSCALTIVSIISISFIIFQFKSSILYSLGASDNTYPMAVQYISIILFGSIFMCLASVMSYIMVSLGKTKTLLYTNIVGVLLNIILNYVLVIQLHMGIRGSGIATVLSQLAAFVVALVQFAYMNKKQNFKFFENISTNIISGDIIREIVLVGFSTFIIEIADAVVSAVLNNVLYAGGGDSAIIMLGVITKVYMFMFITVIGISSGMQPIVGYNFGAGNYKKAKDILKFSLKTVIIISAFVWVGFIIWAQPLIGFFLKDAQLVSKTVSAFRIVISMLPLLGIYYVAIYYYQAIGEARISFILSIYRELIMFIPMAVILFKIVGINGVFIAYPLTDIIVILTSVYFIRRAFKEQFAEESIPKRVGARA
  protein production: failed

## MNKKRMIAMVSTALLVTGCAEVGNAQTVAVENSGQSVQKNIVKSIQSQANPLKTIEPSKPFEDLKPLKKMIGNAQYVGLGENTHGSSEIFTMKFRLVKYLVTEMGFTNFAMEEDWGNGLKLNEYIQTGKGNPREFLKLLYPTDEIIAMIEWMKDYNADPSNKKKIQFIGLDLKALDQGSFNKVIDYVRLHRPDLLAEVEENYKELSSFTGSIQEYMKLTPKLKEKFKANAERVARLLKDENEQANTEIIPSEYIWAKATASAIEKFTTMLLPNDYPSIIKLHEQYLADHAMWAQETFGGKTMVWAHNIHIAKGIIDEKLYPYVAGQFLKERLDNNYVTIGSTTTEGNFTLYSEYNPSTGGKITTDTIPQDVKSFNYTLGKVPYKMFLLDNRHLKGQAEKWVKAKRPLLSIGGQILPNSSVYFDTSLLEQFDIIFHIRKTSPSHIKLEHHHHHH
  protein production: not failed

## MTLGLTPKFVKIFLFVGLMLLSTSLAVIFPLNSVEGLGSGVTKTVLDNGLTVLIKEIPTAPVVSLQVWYRVGSRHEPKGENGIAHQLEHLMFKGTQSRPVQFGQLFYALGSSSNAFTSYDMTAYHHTVRADQLEPLLILEADRLRHTLITPDALESEKRVVISELQGYENSPEYRLSRAVMAALYPKHPYGLPVGGTASDVEQLTLAAVKSFYQQYYRPDNAVVVIAGNVRAARALELVKSTFGAIPQPPEPLISPPLPPPGAVSGQRIRLREPGSAPLLQILVPIPGITHPDQAALDVLDMLLSGGRSSYFYQELMETGQASSAYSYVAALQEGGWFEMGAIASPDQSLETIEQSIGKMLQQLAERPLSLAELQRAKQQLKANFILRNRDIDAQASQLANDETLTGDYRFSDRHLAAIEKVTAADVQRVVQTYFGRDRWIVGEFIPSEFADVELSGRPAVQTTAHNLIGEPVDPQTIAAYLPQGSAQAAPAVKNNGVETFTLENGLRVLLLVDRSTPTVTLAGRIDAGTAYDLLTQPGVANLTAANLLNGTRTKTALTLAQTLEDRGISLEFSAFRDGVDVEGYALASELPTLLATLGEVLQEATFPEAEFKLSQQRYLTALGLEADDPVRWGRRVLQETLYPAHHPLHPFATPESVQAIQRQDLLNFYRAAYRPDRTILTLVGDFDPLAVRSRLKDIFGPWQPPTAPLSLTFPAVSPPPQTLFRNAVIAGKSQAITYLGTPGIDRRHPRFYAAMLMNHILGGDTLASRLGTEIRDRQGLTYGIYSFFTASRQAGPFMIQLQTAPEDTAKAIQATLQLLREARRQGFTAAELEAAKRSLSNTYLVELANVDVVARTLLANASVDLPPQELQQFSDRLQQVSLAEVNQALRELIDPERLVIVTAGPAVSFSP
  protein production: failed

## EMGVAYLTEVVVNEVVEAHEVPEVQHALNINSSESLIHIVRTRRLNQHVKIVDEDYFLKSIVSDIGNDVASDSIYDYLEKVLNLNISYSSKSITFEPFDEQAYQLFGDVSVAYSATVRSIVYLENTMPFQYNISKHLANEFKFNDFSRRRIK
  protein production: failed

## MLYPSKPNNEALRIQTLRELNVLDTSPEERFDRLTRLAKRLFNVPIALVSLVDADRQWFKSCVGLDVSETSRDISFCGHAILGDQILTVPDAGLDERFHDNPLVVGAPGIRFYAGCPLTVTNGSKLGTLCLIDIKPRDLDDEDRALLRDLARMAEQELAAVQMASMDELTLLSNRRGFEALARHALGVCKRLEKPATLLFFDLNDFKQINDTYGHAEGDGALKTFADVLRIAFRESDVIGRLGGDEFVALLTAADHVETSAIMARLREILDERNATLKRGYDIRFSVGQIEYDAERHPDIEALLADADKAMYLHKQASKRARLEHHHHHH
  protein production: failed

## TINSKFQSDVSAALKKYMGTDLTTGGYAAVMNPKTGGVYAMAGWDRNVKTGKLTQNDLAAIQDPIVMGSAVKPAMVSMALQAGVITPTSSTQDDQIIKLAGTAEKHSDFNPTGVKIPLTAEQALEDSSNTYMIQLALKMNGTPYVSGMSLNVSSNIWQKMRNGFGEFGLGSRTGIDLPGETAGYKGSITGSLASSFIDEAFGQYDTYSVIQMARFVSTIANGGYLVQPKVVASVLKSGKNGVRSSVASEVSPTIQGYVKMNNAQWNVIKTGMWDVANGSSQYNTGGTLIHELSPKVAAKTGTAESFVDGQQTQNDTLIMYSPYAPFAIAIAYVGDKVDSFGAVEKAAAAIYNAFWKDVMPKPND
  protein production: failed

## MSPTRAQRLEGLERIAYCSDVKLFFLVSGSRMFLLLLMLFLRVALPHIYGTELLWDSGTLLYDDMNSTWSLLNFPRSWDGVHFFHVAKHGYSHENVCAFFPLVPFIVRTVSWLNDVLLPEFLTAVPVTFQVALLNVAMGGAAAVCLRRITILTLLSGSHGVDYTNKKDKAMSMTSGTWLDSLPLPPPYYRHEVTVKEHLNARLWKEVGATVLMWMLSPTAVFSVVLYTESVFSFATFLGVYMLIVSPQGKWRTAAAEAGAVLCFAVAGCARSNATTYIGFVLYPVFLQVFFFDTYRKRYAKRYGVTSPIRRWPSLARCVIVLIEVVIIITPYLGLNYLCYSRFVPLWDDMSRAAIGGRFWAFYGWMQKRYWNVGFLQSYRWGNAPNVLISAPIMFFTVRGFVLFIVQPALARSMETESNISKEYQEPRSDCREDRCGNKKQRLFSIYKLMENLVQSSNIICLLVILAFGATMAHVNVVNRLVMSSPALYWLWGRQFVCDPWGGNTVVMVRIFLLWNCIGALFVPNGLPWT
  protein production: failed

## MRSSKMDMPIVLSKRHRRLRSMKDCEPGLPYNEIVENGKRIDLCYSKQYKKYTKKIEIRVGTSILHNKLLRIFPNIVKIYSKHFINLPDLITENTEKRELIFIELENLIIGGGTSGLGVLSEISKEEKTLLISSNIESNTDIPYPLPQINKDEFSKLLRDTINENKDRILEGILLGKFDEGIGFLTKDKILMVRAKRVFLATGGRYIPPIFDGNDIPGIISKNLYLRYGNRITKAIALGNSDDIIKVLFKVEKRVIINNGVLFLSKYYKELIDELGVEIINTNNLKVKREKGGMLKIITNERSFDSNILVYAIVKQPKIDHSYNIGIPYNFSEYFHIYMPIHSIEGKTNDNIYIVGGMRGISDEYTSFLSGKTAVNEKYLDEFINNLKDYTYIYDYYYQKNPKENPSPYIYGNKGYVCECEDITLSEVNRQVGRGFSKVEEIKRTIGLGTGECQGKLCTYSLGSFLGDRQLITFRTPLYRMVI
  protein production: failed
